Test results from the supplement of paper PMC7125110.
± gives the standard error. Variants at the floor of the assay were thinned out.

B1: glmS ribozyme (parent)
chain: AUAAAAGCGCCAGAACUACAGAAAUGUAGUUGACGAGGAGGAGGUUUAUCGAAUUUUCGGCGGAUGCCUCCAAA

Legend:
Details in all cases: with glucosamine-6-phosphate
glucosamine-6-phosphate [1] = variants of: B1; assay: self-cleavage kobs at 160 uM GlcN6P; higher = faster cleavage; RNA array
Summary of the method: (§1)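 Barcoded ribozyme variants were transcribed in situ on sequenced MiSeq chips by E. coli RNA polymerase. At 37 °C, a hybridised Cy3 probe tracked them while glucosamine-6-phosphate (40 μM to 10 mM) in HEPES/KCl/Mg(OAc)2 buffer flowed in and tiles were imaged over ~14 h. Per-tile medians of signals normalised to baseline and to non-cleaving reference variants were fit to one- or two-exponential decays, giving kobs. kcat and KM came from weighted Michaelis–Menten fits across concentrations.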

glucosamine-6-phosphate [2] = variants of: B1; assay: self-cleavage kobs at 640 uM GlcN6P; higher = faster cleavage; RNA array
Summary of the method: as §1

glucosamine-6-phosphate [3] = variants of: B1; assay: self-cleavage kobs at 2500 uM GlcN6P; higher = faster cleavage; RNA array
Summary of the method: as §1

glucosamine-6-phosphate [4] = variants of: B1; assay: self-cleavage kobs at 10000 uM GlcN6P; higher = faster cleavage; RNA array
Summary of the method: as §1

Variant | self-cleavage kobs at 160 uM GlcN6P (glucosamine-6-phosphate [1]) [s⁻¹] | self-cleavage kobs at 640 uM GlcN6P (glucosamine-6-phosphate [2]) [s⁻¹] | self-cleavage kobs at 2500 uM GlcN6P (glucosamine-6-phosphate [3]) [s⁻¹] | self-cleavage kobs at 10000 uM GlcN6P (glucosamine-6-phosphate [4]) [s⁻¹]
C16G U47A C50U A53G | < 1e-05 |  |  | 
A15G U55G C71G | 0.00025 ± 5.3e-05 | 0.000408 ± 9.6e-05 | 0.000866 ± 0.00028 | 
C16A G38C C68U | < 1e-05 | < 1e-05 |  | 
A42G A48G U54A | < 1e-05 |  |  | 
C50G U54A U65A | 0.00014 ± 3.8e-05 |  | 5.15e-05 ± 2e-05 | 5.29e-05 ± 1.5e-05
G37C C71G | < 1e-05 |  |  | < 1e-05
U30G G51U | < 1e-05 |  |  | < 1e-05
A33U G35C U57C U65C | < 1e-05 | < 1e-05 | < 1e-05 | 
C16U G37U C68G U69G | 4.65e-05 ± 2.2e-05 | 0.000144 ± 7.1e-05 | 4.23e-05 ± 1.8e-05 | 
G51U U55G C58G C61G | 3.64e-05 ± 1.6e-05 |  |  | 
G29A U30G G35A G38U U46A C71G | < 1e-05 |  |  | 
U31C G32C A33U C34A U49A | < 1e-05 |  | < 1e-05 | < 1e-05
U46G G60C A64U | < 1e-05 |  | < 1e-05 | < 1e-05
U46C A53G U54C | 0.000138 ± 2.9e-05 | 0.000673 ± 0.00011 | 0.00116 ± 0.00021 | 
G40C A42G A53C | 5.62e-05 ± 1.9e-05 | 0.00018 ± 6.6e-05 | 0.000564 ± 0.00013 | 
G29A G35A | < 1e-05 |  | < 1e-05 | 
U47G U54C | 0.000851 ± 0.00032 | 0.0026 ± 0.00053 | 0.00468 ± 0.00094 | 0.0139 ± 0.0032
G38C U45A | < 1e-05 | < 1e-05 |  | 
A15G U49G G63U C67A | < 1e-05 | < 1e-05 |  | 
G29C G44A G60A A64G | < 1e-05 | < 1e-05 | < 1e-05 | 
G29A U47G A53G | 6.62e-05 ± 2e-05 | 0.000173 ± 3.2e-05 | 0.000477 ± 0.00013 | 
G38U U65G C70U | < 1e-05 | < 1e-05 |  | 
C34U U47G | < 1e-05 | < 1e-05 |  | 
U57G U69G | 8.11e-05 ± 1.7e-05 | 0.000113 ± 2.8e-05 | 4.87e-05 ± 1.6e-05 | 
A36U U55C | < 1e-05 | < 1e-05 |  | 
G43U U57A | < 1e-05 |  | < 1e-05 | 

Variant | self-cleavage kobs at 160 uM GlcN6P (glucosamine-6-phosphate [1]) [s⁻¹] | self-cleavage kobs at 640 uM GlcN6P (glucosamine-6-phosphate [2]) [s⁻¹] | self-cleavage kobs at 2500 uM GlcN6P (glucosamine-6-phosphate [3]) [s⁻¹] | self-cleavage kobs at 10000 uM GlcN6P (glucosamine-6-phosphate [4]) [s⁻¹]
A15G G51C | < 1e-05 | < 1e-05 | < 1e-05 | < 1e-05
G32C G51C C68U | < 1e-05 |  | < 1e-05 | 
C34A U45G G66U U69G | < 1e-05 | < 1e-05 | < 1e-05 | 
A33G G37A A39C G63C C68G | < 1e-05 | < 1e-05 |  | 
A33C G40C A52G G63A | < 1e-05 | < 1e-05 | < 1e-05 | 
C16U G43U G59U | < 1e-05 | < 1e-05 |  | 
G44A U56A C70U | < 1e-05 | < 1e-05 |  | 
U45G G51C A64C | < 1e-05 | < 1e-05 |  | 
C50U G51C | < 1e-05 | < 1e-05 | < 1e-05 | 
U47C U49A | < 1e-05 |  | < 1e-05 | < 1e-05
A36C G40A | < 1e-05 | < 1e-05 |  | < 1e-05
U57C G63A | < 1e-05 | < 1e-05 | < 1e-05 | < 1e-05
A14U U30C G43A | < 1e-05 | < 1e-05 | < 1e-05 | 
U31G C68G | 0.000192 ± 8.2e-05 |  | 6.11e-05 ± 1.1e-05 | 3.16e-05 ± 8.9e-06
A36G G40A G44A U46G G51C | < 1e-05 |  | < 1e-05 | 
G32U C34A G40C U57A G62U | < 1e-05 |  |  | 
U31G G43U G66U | < 1e-05 |  | < 1e-05 | 
A52U G60A G66C | < 1e-05 | < 1e-05 |  | 
C16A U49C | < 1e-05 | < 1e-05 |  | < 1e-05
A52C A53G G62C | < 1e-05 |  |  | < 1e-05
G40U C61G | < 1e-05 | < 1e-05 |  | < 1e-05
A33C G41A | < 1e-05 | < 1e-05 |  | 
G43U U47G U65C | < 1e-05 |  | < 1e-05 | 
C34U U49G A52U | < 1e-05 |  | < 1e-05 | < 1e-05
A53G C58A C68G | 0.000121 ± 4.6e-05 |  | 0.000107 ± 2.5e-05 | 
G43U U69C C70G | < 1e-05 | < 1e-05 |  | 

Variant | self-cleavage kobs at 160 uM GlcN6P (glucosamine-6-phosphate [1]) [s⁻¹] | self-cleavage kobs at 640 uM GlcN6P (glucosamine-6-phosphate [2]) [s⁻¹] | self-cleavage kobs at 2500 uM GlcN6P (glucosamine-6-phosphate [3]) [s⁻¹] | self-cleavage kobs at 10000 uM GlcN6P (glucosamine-6-phosphate [4]) [s⁻¹]
G44C C50U U54C | < 1e-05 | < 1e-05 |  | 
C34U A52C A64U C67U | < 1e-05 | < 1e-05 | < 1e-05 | 
C34G G38U G44C U49C | < 1e-05 |  |  | 
G29A C50G | 0.000108 ± 3.1e-05 | 3.64e-05 ± 1.5e-05 | 0.00038 ± 0.00019 | 
A53G U55A G66U | 0.000163 ± 4.6e-05 | 0.000436 ± 9.4e-05 | 0.000351 ± 0.00011 | 
U45C U47C G62U C68U | < 1e-05 |  |  | 
A42C G51U A53C C71G | < 1e-05 |  |  | 
A14U U31A U47A | 0.000611 ± 0.00016 | 0.00172 ± 0.00055 |  | 
U47A C58A | 2.53e-05 ± 1.2e-05 | 7.69e-05 ± 1.4e-05 | 0.00024 ± 2.9e-05 | 
U45C C61A | < 1e-05 |  | < 1e-05 | < 1e-05
C34G G63A | < 1e-05 | < 1e-05 | < 1e-05 | < 1e-05
A14G G35U G40A | < 1e-05 |  |  | 
G29U G37C A39U | < 1e-05 | < 1e-05 |  | 
U54A G66A | 0.00093 ± 0.00023 | 0.00513 ± 0.00085 | 0.00986 ± 0.0017 | 
G41C A48G G63U | < 1e-05 | < 1e-05 | < 1e-05 | 
C50G G63A A64U | 0.000145 ± 4.6e-05 | 0.000136 ± 4.5e-05 |  | 
C16A G35A G43A | < 1e-05 | < 1e-05 | < 1e-05 | 
G29U A39G U56A | 8.2e-05 ± 2.8e-05 | 0.001 ± 0.00039 | 0.00181 ± 0.00055 | 
G43C G60C C68U | < 1e-05 | < 1e-05 |  | 
A15G U55G C70A | 7.19e-05 ± 1.2e-05 | 0.000151 ± 2.6e-05 | 0.000186 ± 3.7e-05 | 
G43C C71G | < 1e-05 | < 1e-05 | < 1e-05 | 
A39G G63U | < 1e-05 | < 1e-05 | < 1e-05 | < 1e-05
A39C G41U U46G | < 1e-05 |  |  | 
G32U G60C | < 1e-05 | < 1e-05 | < 1e-05 | 
A14G G32A G38U | < 1e-05 |  | < 1e-05 | < 1e-05
A15C U30G U31G | 0.00201 ± 0.00083 | 0.0146 ± 0.0069 | 0.00946 ± 0.0035 | 

Variant | self-cleavage kobs at 160 uM GlcN6P (glucosamine-6-phosphate [1]) [s⁻¹] | self-cleavage kobs at 640 uM GlcN6P (glucosamine-6-phosphate [2]) [s⁻¹] | self-cleavage kobs at 2500 uM GlcN6P (glucosamine-6-phosphate [3]) [s⁻¹] | self-cleavage kobs at 10000 uM GlcN6P (glucosamine-6-phosphate [4]) [s⁻¹]
A15G G40A A53G | 0.000772 ± 0.00017 |  | 0.00292 ± 0.00062 | 
G37A G51A C71A | < 1e-05 |  | < 1e-05 | 
G37A G62C | < 1e-05 | < 1e-05 | < 1e-05 | < 1e-05
G35C U49G | < 1e-05 | < 1e-05 | < 1e-05 | 
U47A G63U | < 1e-05 | < 1e-05 | < 1e-05 | < 1e-05
A15C A36U A39G | < 1e-05 | < 1e-05 | < 1e-05 | < 1e-05
G29A U31G G62A | < 1e-05 |  |  | 
A39U C61U G62U | < 1e-05 | < 1e-05 | < 1e-05 | 
G32C A36U C50A C70G | 0.0002 ± 3.9e-05 | 0.000332 ± 8.2e-05 | 0.000299 ± 0.0001 | 
A48G U57A | < 1e-05 | < 1e-05 | < 1e-05 | 
G35C G37C U46C G63U | < 1e-05 | < 1e-05 | < 1e-05 | 
C16U G29C G44U C67G | 0.000224 ± 0.0001 |  |  | 
U31G G41U U47G G62U A64U C70G | < 1e-05 | < 1e-05 |  | 
G43C A48G C71G | < 1e-05 | < 1e-05 | < 1e-05 | 
C50A C67U C71G | 4.46e-05 ± 2.1e-05 | 0.000107 ± 2.5e-05 |  | 
U31A A33G | < 1e-05 | < 1e-05 |  | < 1e-05
G35C C71A | < 1e-05 | < 1e-05 | < 1e-05 | 
U49C G51C | < 1e-05 | < 1e-05 | < 1e-05 | 
C16U G43U U57C | < 1e-05 | < 1e-05 | < 1e-05 | 
C34A U57G | < 1e-05 |  |  | < 1e-05
G32U G41A U47G C61A G62U | < 1e-05 | < 1e-05 | < 1e-05 | 
A33G A53C C71U | < 1e-05 |  |  | 
U31A A33G A48G | < 1e-05 |  |  | 
